Experimental data: the Human Domainome abundance scans (Beltran et al. 2025)
± gives the uncertainty stated by the source.

B1: Ankyrin-1, residues 1405 to 1484; numbered along this chain, P16157 (parent)
chain: MKMAVISEHLGLSWAELARELQFSVEDINRIRVENPNSLLEQSVALLNLWVIREGQNANMENLYTALQSIDRGEIVNMLE

Variants of: B1
Assay: abundance fitness (aPCA) (normalised: wild type 0, dead -1); higher = more abundant; growth selection in yeast, the domain comes from the species named
Settings: Homo sapiens

Abundance fitness, by site and new letter:
R19: L 0.025 ± 0.053 | K -0.048 ± 0.17 | S -0.123 ± 0.084 | Q -0.052 ± 0.12 | D -0.296 ± 0.11 | Y -0.434 ± 0.17 | T -0.092 ± 0.046 | A -0.047 ± 0.06 | V -0.072 ± 0.057 | M 0.003 ± 0.1 | W -0.268 ± 0.09 | H 0.064 ± 0.18 | N -0.32 ± 0.23 | I -0.489 ± 0.17 | F 0.067 ± 0.057 | G -0.229 ± 0.042 | C -0.17 ± 0.077
S24: R -0.25 ± 0.051 | Q -0.195 ± 0.088 | C -0.39 ± 0.17 | G -0.23 ± 0.054 | Y -0.856 ± 0.26 | K -0.147 ± 0.099 | P -0.209 ± 0.056 | M -0.487 ± 0.12 | L -0.776 ± 0.12 | E -0.067 ± 0.069 | H -0.429 ± 0.18 | T -0.191 ± 0.088 | F -0.837 ± 0.36 | V -0.722 ± 0.097 | W -0.925 ± 0.25 | A -0.213 ± 0.056
V25: N 0.114 ± 0.14 | G -0.119 ± 0.038 | R -0.07 ± 0.046 | Y 0.143 ± 0.097 | S 0.002 ± 0.054 | P 0.018 ± 0.076 | K -0.005 ± 0.11 | I -0.143 ± 0.21 | M -0.056 ± 0.12 | E 0.078 ± 0.06 | Q -0.03 ± 0.066 | A 0.028 ± 0.05 | C -0.161 ± 0.083 | H 0.159 ± 0.085 | D -0.05 ± 0.1 | T -0.159 ± 0.079 | L -0.073 ± 0.036 | W -0.265 ± 0.069
P36: D -0.165 ± 0.14 | Y -0.565 ± 0.25 | K -0.267 ± 0.16 | I -0.459 ± 0.21 | H -0.31 ± 0.12 | L -0.774 ± 0.12 | V -0.666 ± 0.12 | C -0.069 ± 0.098 | T -0.525 ± 0.15 | M -0.064 ± 0.34 | E -0.066 ± 0.12 | N -0.104 ± 0.25 | G -0.298 ± 0.071 | W -0.219 ± 0.095 | Q 0.123 ± 0.11 | A 0.016 ± 0.071
R32: M -0.35 ± 0.13 | P -0.831 ± 0.23 | K -0.3 ± 0.12 | Q -0.132 ± 0.066 | G -0.212 ± 0.06 | N -0.369 ± 0.17 | H -0.294 ± 0.12 | I -0.124 ± 0.071 | T -0.141 ± 0.083 | V -0.041 ± 0.059 | L -0.095 ± 0.056 | E 0.031 ± 0.05 | W -0.31 ± 0.45 | C -0.13 ± 0.19 | Y -0.43 ± 0.15 | F 0.069 ± 0.098
Q22: W -0.506 ± 0.088 | E -0.043 ± 0.071 | T -0.044 ± 0.072 | F -0.092 ± 0.15 | S 0.018 ± 0.055 | N -0.077 ± 0.22 | I -0.276 ± 0.15 | P -0.522 ± 0.14 | H -0.413 ± 0.19 | D -0.218 ± 0.11 | V -0.494 ± 0.079 | M -0.008 ± 0.048 | C 0.016 ± 0.078 | G -0.08 ± 0.05 | Y -0.187 ± 0.15 | K 0.011 ± 0.08 | R -0.093 ± 0.051 | L -0.126 ± 0.052 | A -0.066 ± 0.063
E26: G -0.127 ± 0.039 | H -0.113 ± 0.2 | R -0.104 ± 0.051 | S -0.071 ± 0.055 | P -0.371 ± 0.089 | Q -0.119 ± 0.098 | F -0.369 ± 0.14 | N 0.016 ± 0.15 | Y 0.064 ± 0.15 | W -0.197 ± 0.054 | A -0.2 ± 0.066 | V -0.233 ± 0.064 | K -0.059 ± 0.073 | L -0.153 ± 0.053 | M -0.189 ± 0.1 | T 0.023 ± 0.094 | I -0.303 ± 0.15
L17: S -0.853 ± 0.14 | C -0.81 ± 0.2 | D -1.01 ± 0.27 | E -0.204 ± 0.16 | G -0.972 ± 0.12 | N -0.776 ± 0.32 | W -0.636 ± 0.12 | H -0.671 ± 0.4 | Y -0.462 ± 0.11 | M -0.25 ± 0.12 | P -0.881 ± 0.23 | A -0.607 ± 0.12 | F 0.009 ± 0.11 | R -1.03 ± 0.17
F23: K -0.786 ± 0.18 | V -0.144 ± 0.067 | T -0.908 ± 0.31 | P -0.918 ± 0.21 | Y -0.478 ± 0.12 | Q -0.883 ± 0.24 | N -1.02 ± 0.32 | L -0.443 ± 0.061 | M -0.693 ± 0.14 | C -0.51 ± 0.16 | R -0.833 ± 0.085 | I 0 ± 0.1 | E -0.911 ± 0.35 | H -0.829 ± 0.36 | W -0.964 ± 0.17
N29: E -0.05 ± 0.067 | F -0.376 ± 0.14 | M -0.075 ± 0.068 | T -0.005 ± 0.082 | D 0.041 ± 0.079 | V -0.213 ± 0.054 | K 0.021 ± 0.1 | L -0.127 ± 0.059 | Y -0.484 ± 0.16 | P -0.952 ± 0.22 | G -0.133 ± 0.049 | H -0.37 ± 0.2 | I -0.123 ± 0.16 | C -0.184 ± 0.12 | W -0.148 ± 0.051 | S -0.156 ± 0.062 | R -0.007 ± 0.048 | Q -0.041 ± 0.077 | A -0.062 ± 0.052
V33: T 0.138 ± 0.082 | P -0.764 ± 0.24 | H -0.043 ± 0.049 | K -0.215 ± 0.14 | Q 0.033 ± 0.09 | M -0.034 ± 0.076 | C 0.174 ± 0.12 | A 0.096 ± 0.057 | N -0.103 ± 0.28 | E -0.014 ± 0.068 | L -0.001 ± 0.061 | R 0.021 ± 0.038 | W -0.073 ± 0.07 | G -0.041 ± 0.04 | F 0.021 ± 0.12 | D -0.031 ± 0.14 | S -0.03 ± 0.061 | I -0.018 ± 0.13
E20: Y -0.286 ± 0.12 | I -0.135 ± 0.12 | F -0.345 ± 0.093 | P -0.996 ± 0.17 | M -0.077 ± 0.12 | G -0.49 ± 0.068 | Q 0.069 ± 0.12 | L -0.411 ± 0.057 | A -0.136 ± 0.059 | C -0.125 ± 0.077 | V -0.175 ± 0.062 | H -0.12 ± 0.1 | R -0.127 ± 0.053 | N -0.087 ± 0.14 | D -0.508 ± 0.15 | S -0.145 ± 0.049
E16: R -0.085 ± 0.056 | V -0.037 ± 0.05 | W -0.593 ± 0.15 | T -0.222 ± 0.095
A18: R -0.681 ± 0.1 | M -0.827 ± 0.27 | Q -0.936 ± 0.38 | E -0.39 ± 0.14 | I -0.77 ± 0.16 | D -0.96 ± 0.23 | F -0.872 ± 0.28 | G -0.075 ± 0.048 | P -0.912 ± 0.17 | V -1.07 ± 0.15 | N -0.627 ± 0.29 | L -0.535 ± 0.078 | T -0.89 ± 0.2 | W -0.9 ± 0.19 | C -1.05 ± 0.29
R30: S -0.139 ± 0.062 | K 0.054 ± 0.12 | N -0.134 ± 0.071 | L -0.213 ± 0.057 | Q -0.049 ± 0.072 | W -0.328 ± 0.076 | G -0.236 ± 0.05 | P -1.1 ± 0.21 | F -0.518 ± 0.18 | C -0.022 ± 0.12 | V -0.192 ± 0.055 | Y -0.298 ± 0.16 | A -0.215 ± 0.059 | I -0.356 ± 0.2 | E -0.292 ± 0.13 | H -0.081 ± 0.22 | D -0.122 ± 0.11 | T -0.226 ± 0.086
L21: M 0.048 ± 0.12 | C -0.727 ± 0.33 | F -0.69 ± 0.29 | W -0.666 ± 0.13 | A -1.02 ± 0.28 | I -0.425 ± 0.38 | G -0.965 ± 0.17 | R -0.923 ± 0.26 | S -0.645 ± 0.15
N35: I -0.457 ± 0.11 | T -0.3 ± 0.12 | R -0.068 ± 0.11 | V -0.171 ± 0.12 | P -0.866 ± 0.23 | F -0.219 ± 0.2 | M -0.317 ± 0.17 | A -0.304 ± 0.095 | Y -0.42 ± 0.3 | K -0.064 ± 0.16 | S -0.017 ± 0.12 | E 0.051 ± 0.39 | L -0.491 ± 0.12 | C -0.355 ± 0.22 | G -0.858 ± 0.21 | W -0.222 ± 0.096 | Q -0.247 ± 0.16
I28: C -0.198 ± 0.087 | A -0.522 ± 0.066 | V -0.1 ± 0.051 | L -0.529 ± 0.083 | F -0.738 ± 0.22 | K -0.686 ± 0.18 | R -0.571 ± 0.071 | G -0.891 ± 0.11 | M -0.341 ± 0.13 | Y -0.485 ± 0.2 | D -0.584 ± 0.43 | S -0.797 ± 0.11 | T -0.43 ± 0.11 | E -0.627 ± 0.11 | P -0.58 ± 0.14 | Q -0.577 ± 0.22
E34: R -0.204 ± 0.12 | K -0.522 ± 0.41 | V -0.308 ± 0.099 | W -0.559 ± 0.28 | G -0.166 ± 0.074 | M -0.265 ± 0.34 | P -0.992 ± 0.49 | F -0.185 ± 0.16 | D -0.186 ± 0.33 | Y -0.565 ± 0.38 | L -0.241 ± 0.097 | C -0.257 ± 0.19 | N -0.134 ± 0.35 | S -0.144 ± 0.12 | H -0.453 ± 0.18
D27: R -0.46 ± 0.071 | N -0.49 ± 0.22 | K -0.508 ± 0.15 | F -0.436 ± 0.2 | P -0.822 ± 0.23 | L -0.429 ± 0.077 | A -0.071 ± 0.069 | W -0.89 ± 0.15 | Y -0.597 ± 0.2 | H -0.121 ± 0.17 | E -0.08 ± 0.069 | V -0.089 ± 0.058 | M -0.213 ± 0.14 | I -0.043 ± 0.094 | S -0.127 ± 0.058 | C -0.063 ± 0.15 | T -0.236 ± 0.14 | G -0.573 ± 0.081
N37: G -0.166 ± 0.093 | H -0.366 ± 0.29 | E -0.005 ± 0.082 | A -0.025 ± 0.093 | F -0.152 ± 0.23 | C -0.314 ± 0.2 | D -0.023 ± 0.13
I31: V -0.192 ± 0.057 | Y -0.448 ± 0.41 | A -0.855 ± 0.15 | L -0.149 ± 0.059 | T -0.774 ± 0.3 | H -1.07 ± 0.28 | M -0.524 ± 0.12 | F -0.793 ± 0.44 | D -0.918 ± 0.32 | Q -0.712 ± 0.11 | R -0.647 ± 0.083 | S -0.938 ± 0.18 | P -0.639 ± 0.29 | C -0.872 ± 0.2
